The values that follow come from the supplement of paper PMC10126150.

± gives the standard deviation of the averaged measurements.

The data set deals with ATP. Briefly: switch fluorescence ratio, 500 uM ATP over buffer (Cy3 cluster intensity, sum of 5 cycles each) (fold (ratio)); higher = stronger signal-on switching upon ATP binding; sequences stand for … in TCGTCGGCAGCGTCAGATGTGTATAAGAGACAGTTTTTTTTTTTTTTTTTTTTTTTTT…TC. To be noted: aptamer strand: ATP DNA aptamer (quencher-CACCTGGGGGAGTATTGCGGAGGAAGG + anchor), 100 nM annealed; ATP concentration: 500 uM. In short, it runs like this: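 Between each of five buffer/ATP cycles, the flow-cell was stripped with NaOH and re-annealed. Each cycle imaged Cy3-labelled switching-strand clusters, annealed to 100 nM quencher-labelled ATP aptamer on a modified Illumina MiSeq flow-cell, first in selection buffer and then after 15 min with 500 uM ATP at 22 °C. The fluorescence ratio is summed target-cycle over summed buffer-cycle Cy3 intensity per cluster, averaged per switch-domain sequence, with clusters outside 100-1000 RFU excluded.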
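Further: ATP exposure 15 min at 22 °C before imaging.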

As to TCGGTATATA, the switch fluorescence ratio is 1.03 ± 0.033. The same measure for ACCTTTTAAG: 1.23 ± 0.3. Consider CGGGAACATT, for which the switch fluorescence ratio was 1.01 ± 0.017.

As to GAAAATTGAG, the switch fluorescence ratio worked out at 1 ± 0.015.

GCAGGTGGCG: the switch fluorescence ratio was 1.01 ± 0.044. The same measure for CAGGGGAGCG: 0.993 ± 0.037. The same measure for ACATTCAGTA: 0.991 ± 0.014; for GCCAGGCTGG: 1.04 ± 0.021; for TTGATCCGAC: 1.35 ± 0.25. For the sequence CGCTTGTATT, the switch fluorescence ratio stood at 1.02 ± 0.013. Under TCGACTGCGT stands 1.056 ± 0.005; under GAGTGGCACC, 1.04 ± 0.042.

As to CGAGGCAGCA, the switch fluorescence ratio is 1.199 ± 0.009. The same measure for TAATCCGGTC: 1.04 ± 0.094; for GCACTGTGGC: 0.992 ± 0.032; for TGAAAAAAAC: 0.9871 ± 0.0072.

For the sequence CCAGGGGGAA, the switch fluorescence ratio worked out at 1.09 ± 0.12. The same measure for ATATGTTGTT: 0.98 ± 0.025.

In the case of CAATATGTGC, the switch fluorescence ratio was determined as 1.009 ± 0.004.

Consider ATGTGGGCTA, for which the switch fluorescence ratio was found to be 0.992 ± 0.03. Under TTTAACCCCC stands 1.17 ± 0.24. The same measure for ATGGTTGAGG: 0.987 ± 0.031; for ATGGGGAAAT: 0.984 ± 0.021; for GGAATTTCGG: 1.17 ± 0.23. With GTAGGTTATG, the switch fluorescence ratio turned out to be 1.007 ± 0.0081.

On to CCGTCGATGG, for which the switch fluorescence ratio was 1.1 ± 0.036. Under TCAGTATAGG stands 1.01 ± 0.021. For the sequence CAGAGGAGGT, the switch fluorescence ratio was determined as 0.982 ± 0.017.

GGGTGAGGTG: the switch fluorescence ratio was found to be 0.98 ± 0.068. Under GAGGCGGAGG stands 1 ± 0.028; under GTTTCTGGAG, 1.03 ± 0.013. For ATTTTTGTCA, the switch fluorescence ratio came to 0.985 ± 0.015. The same measure for TCTCGCGGGA: 0.97 ± 0.023; for AGGCTTGTGT: 0.99 ± 0.077; for ATTGAGGCTC: 0.985 ± 0.012.

Take GGGTAGGATA: the switch fluorescence ratio was 1.01 ± 0.012.

Turning to TATAAAGGG, the switch fluorescence ratio came out at 0.956 ± 0.022. The same measure for GATCGAGGGG: 1.05 ± 0.1; for CGACGAGGGG: 1 ± 0.03; for TGTTGTTTAA: 1.04 ± 0.086. Under GTCAGGAAGT stands 1.02 ± 0.016; under CCAGGTTTTG, 1.08 ± 0.031. In the case of TAAGTGAAAA, the switch fluorescence ratio came to 0.995 ± 0.0094.

Consider TGGGAGGGGG, for which the switch fluorescence ratio turned out to be 0.991 ± 0.036. The same measure for CACCGAGTTT: 0.987 ± 0.02; for AACGCAGCCT: 1.11 ± 0.0027; for GAGAAGGGAT: 0.999 ± 0.022. The same measure for TTTGGATGGG: 0.994 ± 0.012. Take TATAGCAGTT: the switch fluorescence ratio is 1.01 ± 0.013. On to CCCGGGAGGT, for which the switch fluorescence ratio worked out at 1.035 ± 0.0094.

ACGTGCGGAG: the switch fluorescence ratio came out at 1.01 ± 0.016. The same measure for GCAGGAGATT: 1.01 ± 0.032; for AGAATCTTTC: 1.05 ± 0.071; for CGGGTAATCT: 1.5 ± 0.61. Take GAGTTTGGGT: the switch fluorescence ratio turned out to be 0.985 ± 0.032. TAACCACCGG: the switch fluorescence ratio stood at 1.03 ± 0.011. The same measure for GGACAGGTTT: 0.9784 ± 0.0034; for CATATGGGGT: 1 ± 0.038. The same measure for GTCGGAGCGA: 1.83 ± 0.57; for TGTTGAAGGT: 1.02 ± 0.029. Under ACTCTTAGGG stands 1.03 ± 0.027; under TCCAGATAGG, 0.997 ± 0.048; under ACGGGTCCGG, 1.02 ± 0.011. As for AGGCGATGCG, the switch fluorescence ratio stood at 0.994 ± 0.097. Under AGATGTTAGC stands 0.983 ± 0.047. Under TCAGATATTG stands 0.992 ± 0.04.
